Experimental data from publication PMC10397247.
Each block holds one binder with its values, some of them ahead of it.

Columns and labels:
P12mSN = target: T1, P12mSN; experiment: two-hybrid library CCNG1;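 also: natural log of median RNA to DNA barcode read ratio; higher means stronger binding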
T1 chain: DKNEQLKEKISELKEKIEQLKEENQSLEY

P1mSN = target: T2, P1mSN; experiment: two-hybrid library CCNG1;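 also: natural log of median RNA to DNA barcode read ratio; higher means stronger binding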
T2 chain: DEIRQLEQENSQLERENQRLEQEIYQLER

P2mSN = target: T3, P2mSN; experiment: two-hybrid library CCNG1;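 also: natural log of median RNA to DNA barcode read ratio; higher means stronger binding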
T3 chain: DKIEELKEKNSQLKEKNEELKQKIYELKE

P3mSN = target: T4, P3mSN; experiment: two-hybrid library CCNG1;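 also: natural log of median RNA to DNA barcode read ratio; higher means stronger binding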
T4 chain: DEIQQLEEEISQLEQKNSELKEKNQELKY

P4mSN = target: T5, P4mSN; experiment: two-hybrid library CCNG1;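 also: natural log of median RNA to DNA barcode read ratio; higher means stronger binding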
T5 chain: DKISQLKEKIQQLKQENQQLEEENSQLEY

P5mSN = target: T6, P5mSN; experiment: two-hybrid library CCNG1;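 also: natural log of median RNA to DNA barcode read ratio; higher means stronger binding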
T6 chain: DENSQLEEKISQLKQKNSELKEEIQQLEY

P6mSN = target: T7, P6mSN; experiment: two-hybrid library CCNG1
T7 chain: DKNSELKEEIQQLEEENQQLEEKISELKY

P7mSN = target: T8, P7mSN; experiment: two-hybrid library CCNG1
T8 chain: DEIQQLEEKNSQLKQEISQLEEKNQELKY

P8mSN = target: T9, P8mSN; experiment: two-hybrid library CCNG1
T9 chain: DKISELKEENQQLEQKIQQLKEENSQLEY

P9mSN = target: T10, P9mSN; experiment: two-hybrid library CCNG1
T10 chain: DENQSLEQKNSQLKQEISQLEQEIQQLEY

4H568-bA = target: T11, 4H568-bA; experiment: two-hybrid library CCNG1
T11 chain: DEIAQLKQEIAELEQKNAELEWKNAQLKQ

4H607-bA = target: T12, 4H607-bA; experiment: two-hybrid library CCNG1
T12 chain: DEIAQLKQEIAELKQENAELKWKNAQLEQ

4H687-bA = target: T13, 4H687-bA; experiment: two-hybrid library CCNG1
T13 chain: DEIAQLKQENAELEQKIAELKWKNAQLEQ

4H717-bA = target: T14, 4H717-bA; experiment: two-hybrid library CCNG1
T14 chain: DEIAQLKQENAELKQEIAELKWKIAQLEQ

4H72-bA = target: T15, 4H72-bA; experiment: two-hybrid library CCNG1
T15 chain: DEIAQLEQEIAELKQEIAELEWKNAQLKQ

4H754-bA = target: T16, 4H754-bA; experiment: two-hybrid library CCNG1
T16 chain: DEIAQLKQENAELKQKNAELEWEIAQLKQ

4H797-bA = target: T17, 4H797-bA; experiment: two-hybrid library CCNG1
T17 chain: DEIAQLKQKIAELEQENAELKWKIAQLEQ

4H850-bN = target: T18, 4H850-bN; experiment: two-hybrid library CCNG1
T18 chain: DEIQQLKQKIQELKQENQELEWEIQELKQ

4H883-bA = target: T19, 4H883-bA; experiment: two-hybrid library CCNG1
T19 chain: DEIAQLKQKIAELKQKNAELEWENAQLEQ

4H908-bA = target: T20, 4H908-bA; experiment: two-hybrid library CCNG1
T20 chain: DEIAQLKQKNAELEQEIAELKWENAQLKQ

4H918-bA = target: T21, 4H918-bA; experiment: two-hybrid library CCNG1
T21 chain: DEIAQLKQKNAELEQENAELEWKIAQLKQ

4H953-bA = target: T22, 4H953-bA; experiment: two-hybrid library CCNG1
T22 chain: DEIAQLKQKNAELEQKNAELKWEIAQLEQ

4H967-bA = target: T23, 4H967-bA; experiment: two-hybrid library CCNG1
T23 chain: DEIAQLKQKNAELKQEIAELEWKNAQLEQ

O10-bS = target: T24, O10-bS; experiment: two-hybrid library CCNG1
T24 chain: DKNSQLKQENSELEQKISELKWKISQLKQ

P5A-bA = target: T25, P5A-bA; experiment: two-hybrid library CCNG1
T25 chain: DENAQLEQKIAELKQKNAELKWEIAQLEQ

4H1103-AA = target: T26, 4H1103-AA; experiment: two-hybrid library CCmax
T26 chain: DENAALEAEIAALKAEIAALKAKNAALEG

4H1198-AA = target: T27, 4H1198-AA; experiment: two-hybrid library CCmax; settings: mean of both orientations
T27 chain: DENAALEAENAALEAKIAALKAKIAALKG

4H1350-AA = target: T28, 4H1350-AA; experiment: two-hybrid library CCmax; settings: mean of both orientations
T28 chain: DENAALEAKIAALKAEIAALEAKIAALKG

4H1405-AA = target: T29, 4H1405-AA; experiment: two-hybrid library CCmax; settings: mean of both orientations
T29 chain: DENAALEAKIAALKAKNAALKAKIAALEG

4H2211-AA = target: T30, 4H2211-AA; experiment: two-hybrid library CCmax
T30 chain: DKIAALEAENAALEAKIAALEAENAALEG

4H2238-AA = target: T31, 4H2238-AA; experiment: two-hybrid library CCmax; settings: mean of both orientations
T31 chain: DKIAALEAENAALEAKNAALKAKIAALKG

4H2513-AA = target: T32, 4H2513-AA; experiment: two-hybrid library CCmax; settings: mean of both orientations
T32 chain: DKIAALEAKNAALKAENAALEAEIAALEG

4H2536-AA = target: T33, 4H2536-AA; experiment: two-hybrid library CCmax; settings: mean of both orientations
T33 chain: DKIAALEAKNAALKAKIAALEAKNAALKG

4H2608-AA = target: T34, 4H2608-AA; experiment: two-hybrid library CCmax; settings: mean of both orientations
T34 chain: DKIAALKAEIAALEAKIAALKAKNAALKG

4H2614-AA = target: T35, 4H2614-AA; experiment: two-hybrid library CCmax; settings: mean of both orientations
T35 chain: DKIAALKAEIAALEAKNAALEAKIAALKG

4H2726-AA = target: T36, 4H2726-AA; experiment: two-hybrid library CCmax; settings: mean of both orientations
T36 chain: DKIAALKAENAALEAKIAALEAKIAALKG

4H2935-AA = target: T37, 4H2935-AA; experiment: two-hybrid library CCmax; settings: mean of both orientations
T37 chain: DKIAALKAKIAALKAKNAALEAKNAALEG

4H327-AA = target: T38, 4H327-AA; experiment: two-hybrid library CCmax
T38 chain: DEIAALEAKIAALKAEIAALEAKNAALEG

4H3605-AA = target: T39, 4H3605-AA; experiment: two-hybrid library CCmax; settings: mean of both orientations
T39 chain: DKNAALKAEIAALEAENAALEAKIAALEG

4H3625-AA = target: T40, 4H3625-AA; experiment: two-hybrid library CCmax; settings: mean of both orientations
T40 chain: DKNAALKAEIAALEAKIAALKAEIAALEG

4H3664-AA = target: T41, 4H3664-AA; experiment: two-hybrid library CCmax; settings: mean of both orientations
T41 chain: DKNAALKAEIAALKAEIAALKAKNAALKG

4H369-AA = target: T42, 4H369-AA; experiment: two-hybrid library CCmax; settings: mean of both orientations
T42 chain: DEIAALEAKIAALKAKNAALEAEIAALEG

4H3922-AA = target: T43, 4H3922-AA; experiment: two-hybrid library CCmax; settings: mean of both orientations
T43 chain: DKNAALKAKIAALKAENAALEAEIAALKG

4H4033-AA = target: T44, 4H4033-AA; experiment: two-hybrid library CCmax; settings: mean of both orientations
T44 chain: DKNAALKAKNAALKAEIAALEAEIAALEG

4H481-AA = target: T45, 4H481-AA; experiment: two-hybrid library CCmax; settings: mean of both orientations
T45 chain: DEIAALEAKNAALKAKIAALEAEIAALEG

4H55-AA = target: T46, 4H55-AA; experiment: two-hybrid library CCmax; settings: mean of both orientations
T46 chain: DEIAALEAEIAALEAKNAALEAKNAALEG

4H662-AA = target: T47, 4H662-AA; experiment: two-hybrid library CCmax; settings: mean of both orientations
T47 chain: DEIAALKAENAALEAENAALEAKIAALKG

interaction score (P12mSN): -0.695 | interaction score (P1mSN): -1.32 | interaction score (P2mSN): -1.65 | interaction score (P3mSN): -1.72 | interaction score (P4mSN): -1.35 | interaction score (P5mSN): -1.2 | interaction score (P6mSN): -1.04 | interaction score (P7mSN): -0.807 | interaction score (P8mSN): -2.51 | interaction score (P9mSN): -2.15
Binder: DKNEQLKEKISELKEKIEQLKEENQSLEY [P12mSN]

interaction score (4H568-bA): 1.33 | interaction score (4H607-bA): -1.48 | interaction score (4H687-bA): -0.587 | interaction score (4H717-bA): -0.468 | interaction score (4H72-bA): -0.657 | interaction score (4H754-bA): -0.527 | interaction score (4H797-bA): -0.352 | interaction score (4H850-bN): 0.0841 | interaction score (4H883-bA): 1.54 | interaction score (4H908-bA): -1.26 | interaction score (4H918-bA): -0.305 | interaction score (4H953-bA): -1.16 | interaction score (4H967-bA): -0.986 | interaction score (O10-bS): -1.27 | interaction score (P5A-bA): -1.54
Binder: DEIAQLKQEIAELEQKNAELEWKNAQLKQ [4H568-bA]

interaction score (4H1103-AA): 1.1 | interaction score (4H1198-AA): -1.33 | interaction score (4H1350-AA): -0.275 | interaction score (4H1405-AA): -1.89 | interaction score (4H2211-AA): -1.7 | interaction score (4H2238-AA): -1.65 | interaction score (4H2513-AA): -1.55 | interaction score (4H2536-AA): -1.47 | interaction score (4H2608-AA): 0.0702 | interaction score (4H2614-AA): -1.01 | interaction score (4H2726-AA): -1.04 | interaction score (4H2935-AA): -1.16 | interaction score (4H327-AA): -0.714 | interaction score (4H3605-AA): -1.61 | interaction score (4H3625-AA): -0.923 | interaction score (4H3664-AA): 2.17 | interaction score (4H369-AA): -1.5 | interaction score (4H3922-AA): -1.44 | interaction score (4H4033-AA): 0.386 | interaction score (4H481-AA): -0.163 | interaction score (4H55-AA): -1.09 | interaction score (4H662-AA): -1.27
Binder: DENAALEAEIAALKAEIAALKAKNAALEG [4H1103-AA]
